Measured values reported in PMC4450660, “Biochemical and Structural Characterization of Enolase from Chloroflexus aurantiacus: Evidence for a Thermophilic Origin” (Frontiers in Bioengineering and Biotechnology, 2015).

Molecular target: the molecule itself
Experiment: SEC; native molecular weight of purified EnoCa (~92-96 kDa against a ~46 kDa subunit on SDS gel); gel filtration on Sephacryl S-300 (2.5 x 100 cm), 1 ml/min, is a step of the purification; the data are in Figures S1-S3

B1: enolase-1 from Chloroflexus aurantiacus (enzyme, Chloroflexus aurantiacus strain J.10.fl., UniProt A9WCM4 1-426, looked up)
chain: MSTLIEAIVAREVLDSRGNPTIEVDVRLESGDVGRAIVPSGASTGAHEALELRDGDKSRYNGKGVLKAVQAVNEDIAEALIGFDAADQIALDQELIALDGTPNKSKLGANAILGVSLAAAKAAAAAFGLPLYRYLGGVYAHVLPVPMMNIMNGGQHATNSTDFQEFMIMPVGAESFREGLRWGAEIYHMLKKVIHDRGFSTTVGDEGGFAPSLPTNDAPLQLIMEAIEKAGYRPGEQIVIALDPATTEIFEDGKYHLKREGRSLSSAEMVDYWVDLVNRYPIISLEDGLAEDDWEGWALLRAKLGDRVQLVGDDFLVTNVQRLQRAIEAKAANSILIKLNQIGSLTETLSAIQLAQRSGWTAVVSHRSGESEDVTIADLVVATNAGQIKTGAPARTDRIAKYNQLLRIEEELGSAARYAGRSAFKV
notes: enolase-1 (2-phospho-D-glycerate hydrolyase, EC 4.2.1.11) of Chloroflexus aurantiacus strain J.10.fl., endogenous protein; subunit ~46 kDa by SDS-PAGE; Native protein purified from the organism, no tags; also called EnoCa; EnoCa-1
  stoichiometry N: 2
